Data as given in patent US20120027677A1.
Like-named read-outs stand apart in the source and are kept apart here.

Experiments:
[1] = biological target: T1, PrP^Sc, pathogenic form of the human prion protein (from CJD brain homogenate) (human), P04156
[2] = biological target: T1, PrP^Sc, pathogenic form of the human …; remark: listed apart in the source
[3] = biological target: T1, PrP^Sc, pathogenic form of the human …; remark: listed apart in the source
[4] = biological target: T1, PrP^Sc, pathogenic form of the human …; remark: listed apart in the source

GGGKKRPKPGG (modifications not checked) [peptide of SEQ ID NO: 68]
Exp. Mean (ELISA signal) [1]: 853 RLU
Exp. Mean (as % of 68) [1]: 100%
Exp. Mean (ELISA signal) [2]: 418 RLU
Exp. Mean (as % of 68) [2]: 100%
Mean (% of 68) [3]: 100%
Mean (ELISA signal) [3]: 85 RLU
Mean (ELISA signal) [4]: 138 RLU
